Assay results taken from PMC8249609 (2021).

Biological target: T1, AT1 receptor, residues 1-318, with N-terminal Flag-tag and BRIL (Flag-BRIL-AT1) (human (by the printed RefSeq …, UniProt P30556 1-318))
T1 chain: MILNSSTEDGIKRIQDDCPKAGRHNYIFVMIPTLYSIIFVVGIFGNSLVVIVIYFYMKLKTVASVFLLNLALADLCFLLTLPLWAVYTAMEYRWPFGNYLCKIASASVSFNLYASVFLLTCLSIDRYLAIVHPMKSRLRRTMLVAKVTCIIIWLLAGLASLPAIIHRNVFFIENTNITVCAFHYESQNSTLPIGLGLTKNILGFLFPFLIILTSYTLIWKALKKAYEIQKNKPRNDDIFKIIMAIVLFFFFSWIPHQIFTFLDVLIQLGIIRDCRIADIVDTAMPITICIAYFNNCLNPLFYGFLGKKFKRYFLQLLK
Test: SPR

B1: cartilage oligomeric matrix protein with a C-terminal His-tag (COMP-His) (natural protein)
chain: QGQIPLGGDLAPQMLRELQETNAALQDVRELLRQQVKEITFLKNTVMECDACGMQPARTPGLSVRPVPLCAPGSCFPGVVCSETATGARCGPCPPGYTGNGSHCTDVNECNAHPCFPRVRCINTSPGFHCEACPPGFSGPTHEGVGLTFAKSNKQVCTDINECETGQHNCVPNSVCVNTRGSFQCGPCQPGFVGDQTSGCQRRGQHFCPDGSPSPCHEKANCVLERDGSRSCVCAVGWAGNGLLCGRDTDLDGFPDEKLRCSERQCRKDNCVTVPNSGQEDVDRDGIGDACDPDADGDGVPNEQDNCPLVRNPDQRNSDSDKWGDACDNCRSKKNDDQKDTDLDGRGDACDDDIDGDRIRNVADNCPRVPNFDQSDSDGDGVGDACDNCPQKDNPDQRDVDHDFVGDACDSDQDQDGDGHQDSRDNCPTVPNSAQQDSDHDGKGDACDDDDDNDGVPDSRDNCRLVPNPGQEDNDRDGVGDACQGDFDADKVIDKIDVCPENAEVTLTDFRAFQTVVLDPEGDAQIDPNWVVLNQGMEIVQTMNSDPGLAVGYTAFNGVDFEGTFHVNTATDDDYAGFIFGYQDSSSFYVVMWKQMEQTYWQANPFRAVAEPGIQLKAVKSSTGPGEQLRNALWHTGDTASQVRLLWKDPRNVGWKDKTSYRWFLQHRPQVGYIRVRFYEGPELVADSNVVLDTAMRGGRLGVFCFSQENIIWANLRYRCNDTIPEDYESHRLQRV
koff: 0.000389 s⁻¹
